Results as given in PMC8962251 (Biomedicines, 2022).
Where no end group is shown, it is not given here.

Molecular target: T1, SARS CoV-2 S1S2 trimer (SARS-CoV-2, UniProt P0DTC2 14-1213)
T1 construct: also called trimeric S1S2; "wt" spike trimer
Assay: SPR
Details: both partners purified

B1: CVRBDL-3 (peptide)
peptide: HDFWWEYDKKNDTWTRRRR-NH2
notes: also called CVRDBL-3; CVRBD-3; source: synthetic peptide; bought: CASLO
In the case of B1, the “stoichiometry N” value is reported as 1.
